Laboratory results from PMC3081289 (PLoS ONE, 2011).

Biological target: T1, human Epidermal Growth Factor Receptor 2 (HER2), extracellular domain (Homo sapiens, UniProt P04626)
T1 construct: HER2 (human Epidermal Growth Factor Receptor 2), extracellular domain (ECD); also called HER2-ECD; HER2 ECD; source: expressed and purified as described [54]
Test: SPR; BIAcore 3000; VEGF_(8–109) or HER2 ECD immobilised on CM5 chips; serial dilutions of Fab in PBS with 0.05% Tween20 injected at 30 µl/min; 30°C; 1:1 Langmuir fit; KD from the ratio of kon and koff
Settings: both partners purified

B1: bH1 Fab (HER2/VEGF dual specific variant of Herceptin) (Fab, V domains shown)
VH: not shown
VL: DIQMTQSPSSLSASVGDRVTITCRASQDIPRSISGYVAWYQQKPGKAPKLLIYWGSYLYSGVPSRFSGSGSGTDFTLTISSLQPEDFATYYCQQHYTTPPTFGQGTKVEIK
notes: Isolated from a phage library that randomised the light chain CDRs of Herceptin [22]
B1 gave a Kd of 20 nM.
